Source: patent US20140234868A1, “USE FOR GLYCOLIPOPROTEIN GINTONIN, ISOLATED AND IDENTIFIED FROM GINSENG, AS A NATURAL MEDICAL-PLANT DERIVED LIGAND” (KONKUK UNIVERSITY INDUSTRIAL COOPERATION CORP., priority 2011, published 2014)

Tests used:
mice [1] = assay: Water maze test, scopolamine-caused spatial cognition impairment; format: in vivo, mouse
Experimental: The Moths water maze set up contained a round water pool (45 cm deep with a diameter of 90 cm) filled with milk-mixed water (22±1° C.) to a depth of 30 cm. It was placed in a dark, sound-shielded room in which various visual cues were established. A white platform (6 cm in diameter, 29 cm in height) was inside the pool, with the top thereof 1 cm below the water surface in the center of one quadrant of the maze
On day 1, the mice were trained to swim for 60 sec. Subsequently, the training was conducted four times a day for four consecutive days, with the platform inside the pool. When the mouse reached the platform, it was allowed to sit on the platform only for 10 sec. If the failed in reaching the platform within 60 sec, it was guided to reach the platform and stay for 10 sec thereon. Afterwards, the mouse was returned back to the home cage and allowed to dry its body under an IR lamp. The time interval between trials was 30 sec.
The time to reach the hidden platform was recorded in each trial using a video camera-based Ethovision System (Nodulus, Wageningen, the Netherlands).
For each training trial, the mouse was placed into the pool at one quadrant at positions which were different day by day. One day after the final training trial, the mouse was evaluated. In this regard, after the platform was removed, the mouse was allowed to swim for 60 sec in search for the platform, and the time to swim in the quadrant where the platform was located was recorded. Gintonin (25, 50, or 100 mg/kg, p.o.) in physiological saline was administered 1 hr before test, every day. Tacrine (10 mg/kg, p.o.) was used as a positive control. Memory impairment was induced by scopolamine (0.9 mg/kg i.p.) 30 min after gintonin administration. For a negative control, only physiological saline was administered.
An examination was made of simple spatial reasoning. To this end, while the mice were allowed to swim in the absence of the rescue platform in the pool, the time period during which the mice swam in the quadrant where the rescue platform had been located was recorded.

mice [2] = assay: Busulfan-caused diarrhea and mucositis in mice; format: in vivo, mouse; details: for Diarrhea (cases / mice) / Mucositis (cases / mice): gintonin 100 mg/kg oral 3 days before, observed 10 days
Experimental: In this Example, an examination was made of the inhibitory activity of gintonin against chemotherapy-induced diarrhea and mucositis. For this, gintonin-treated mice were administered with busulfan, and observed for diarrhea and mucostitis.
Briefly, mice were orally administered at a dose of 100 mg/kg with gintonin 3 days before intraperitoneal injection with busulfan (40 mg/kg). For the control, physiological saline was used, instead of gintonin.

rat hippocampal slices = assay: Long-term potentiation (LTP) in rat hippocampal slices, theta burst stimulation; details: after TBS, n=4
Experimental: Since agintonin induces NMDA receptor activation as confirmed above, an examination was made of the effect of gintonin on LTP induction in rat hippocampal slices (Moon et al., Neursci. Lett. 466, 114-119, 2009; Lee et al., J Neurosci. Res. 89, 96-107, 2011). In this regard, LTP induction was studied after treatment with three different concentrations of gintonin (0.1, 1, and 10 μg/ml).
Male rats 3-5 weeks old (Sprague-Dawley strain) (Charls River, U.S.A.) were quickly sacrificed by cervical dislocation without using an anesthetic (Steidl et al., Brain Res. 1096, 70-84, 2006). With the aid of a rongeur (Fine Science Tools Inc., USA), the cranium was removed, and the brain was excised, immediately cooled in ice, and immersed in artificial cerebrospinal fluid (saCSF) containing oxygen-saturated (95% O2/5% CO2) sucrose (composition mM: Sucrose 248, NaHCO3 26, glucose 10, KCl 3, CaCl2 2, MgCl2 1, HEPES 10, pH7.4).
The hippocampus was sectioned into 400 μm slices using vibratome (MA752 motorised advance vibroslice; Campden inc.) and the hippocampal slices were stabilized in artificial cerebrospinal fluid (aCSF) (composition mM: […], NaHCO326, Glucose 10, KCl 3, CaCl2 2, MgCl2 1, HEPES 10, pH 7.4) for 1 hr (Lelong and Rebel, J Pharmacol Toxicol Methods. 39, 203-210, 1998).
OHSCs were incubated according to the Stoppini method (Stoppini et al., J Neurosci Methods 37, 173-182, 1991), and all procedures were conducted on a sterilized bench.
Immediately after excision from the cranium, the rat brain was immersed in an ice-cold HBSS-medium (LB 003-01, Sigma, St. Louis, Mo., USA), and the hippocampus was separated and sectioned at a thickness of 400 μm using a tissue chopper (Mickle Laboratory Engineering Co., Surrey, UK). The hippocampal slices were placed on a membrane insert (polytetrafluorethlene membranes, 0.4 μm Millicell-CM, Millipore Co., Bedford, Mass., USA), and immersed in a culture medium. […]

[3] = busulfan 40 mg/kg i.p., gintonin 100 mg/kg oral
[4] = busulfan 40 mg/kg i.p., listed as Gintonin + Busulfan

B1: gintonin: ginseng-derived glycolipoprotein; structural protein of ginseng major latex-like protein (MLP151) and ribonuclease-like storage proteins; crude gintonin used in tests (protein)
chain 1: MGLTGKLICQTGIKSDGDVFHELFGTRPHHVPNITPANIQGCDLHEGEFGKVGSVVIWNYSIDGNAMIAKEEIVAIDEEDKSVTFKVVEGHLFEEFKSIVFSVHVDTKGEDNLVTWSIDYEKLNESVKDPTSYLDFLLSVTRDIEAHHLPK
chain 2: RSDYPWAMFALRLQWPAGFCEVNNACDTKSLLNTFTIHGLYPYNAKGTPALYCDGTAFDVNSVSDFLAEMHLAWPSHETNTEDIQFWEHEWKKHGRCSEALLKQTDYFRTALAFRKAFDIVGLLNQEGIYPNNDLYRPKMIKEAIKKHLNAVPEIDFTKNENSEYVLTDINVCVNQQATRFVDCPTDDATDDYRLKFVRLPSKMKFADPRTNSII
swimming time in the quadrant where the platform had been located (mice [1]; gintonin 25 mg/kg p.o. + scopolamine): 21.33 ± 3.13 s | swimming time in the quadrant where the platform had been located (mice [1]; gintonin 50 mg/kg p.o. + scopolamine): 24.53 ± 3.91 s | swimming time in the quadrant where the platform had been located (mice [1]; gintonin 100 mg/kg p.o. + scopolamine): 25.17 ± 4.43 s | latent time to reach hidden platform (mice [1]; gintonin 25, 50, 100 mg/kg p.o. + scopolamine, day 1 to day 4): reduce the latent time extended by scopolamine significantly and in a dose-dependent manner | diarrhea morbidity rate (mice [2]; [3]): 20% | perianal mucositis morbidity (mice [2]; [3]): 13.3% | Diarrhea (cases / mice) (mice [2]; busulfan 40 mg/kg i.p.): 3 | Mucositis (cases / mice) (mice [2]; busulfan 40 mg/kg i.p.): 2 | Diarrhea (cases / mice) (mice [2]; [4]): 3/15 | Mucositis (cases / mice) (mice [2]; [4]): 2/15 | inhibition of busulfan-caused perianal mucositis (mice [2]; gintonin 100 mg/kg oral): 33.4% | reduction of busulfan-caused diarrhea (mice [2]; gintonin 100 mg/kg oral): more than 30% | total field excitatory postsynaptic potentials (total fEPSPs) (rat hippocampal slices; gintonin 0.1 μg/ml): 180.90±7.53% | total field excitatory postsynaptic potentials (total fEPSPs) (rat hippocampal slices; gintonin 1 μg/ml): 205.32±6.40% | total field excitatory postsynaptic potentials (total fEPSPs) (rat hippocampal slices; gintonin 10 μg/ml): 214.14±11.55%
